Laboratory results as given in article PMC6555833, “APC/C^CDH1 synchronizes ribose-5-phosphate levels and DNA synthesis to cell cycle progression” (Nature Communications, 2019).

T1: purified recombinant TKT (human, UniProt P29401 1-623)
T1 chain: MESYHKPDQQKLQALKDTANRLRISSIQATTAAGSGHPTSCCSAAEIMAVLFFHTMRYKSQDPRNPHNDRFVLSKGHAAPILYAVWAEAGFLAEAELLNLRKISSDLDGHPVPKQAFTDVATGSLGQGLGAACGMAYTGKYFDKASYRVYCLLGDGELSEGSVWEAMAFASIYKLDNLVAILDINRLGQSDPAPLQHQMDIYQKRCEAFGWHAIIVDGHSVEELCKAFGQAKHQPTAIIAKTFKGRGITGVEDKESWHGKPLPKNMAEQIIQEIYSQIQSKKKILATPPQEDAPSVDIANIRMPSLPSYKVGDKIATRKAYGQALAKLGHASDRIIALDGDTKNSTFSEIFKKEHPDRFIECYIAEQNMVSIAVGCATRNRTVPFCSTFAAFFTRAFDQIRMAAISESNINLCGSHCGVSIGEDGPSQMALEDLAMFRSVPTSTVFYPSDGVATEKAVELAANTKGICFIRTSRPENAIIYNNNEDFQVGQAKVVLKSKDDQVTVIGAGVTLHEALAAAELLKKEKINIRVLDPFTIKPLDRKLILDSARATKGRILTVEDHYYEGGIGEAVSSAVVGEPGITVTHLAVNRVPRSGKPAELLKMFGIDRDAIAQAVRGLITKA

B1: purified recombinant TKT (natural protein, human, UniProt P29401 1-623, looked up)
chain: MESYHKPDQQKLQALKDTANRLRISSIQATTAAGSGHPTSCCSAAEIMAVLFFHTMRYKSQDPRNPHNDRFVLSKGHAAPILYAVWAEAGFLAEAELLNLRKISSDLDGHPVPKQAFTDVATGSLGQGLGAACGMAYTGKYFDKASYRVYCLLGDGELSEGSVWEAMAFASIYKLDNLVAILDINRLGQSDPAPLQHQMDIYQKRCEAFGWHAIIVDGHSVEELCKAFGQAKHQPTAIIAKTFKGRGITGVEDKESWHGKPLPKNMAEQIIQEIYSQIQSKKKILATPPQEDAPSVDIANIRMPSLPSYKVGDKIATRKAYGQALAKLGHASDRIIALDGDTKNSTFSEIFKKEHPDRFIECYIAEQNMVSIAVGCATRNRTVPFCSTFAAFFTRAFDQIRMAAISESNINLCGSHCGVSIGEDGPSQMALEDLAMFRSVPTSTVFYPSDGVATEKAVELAANTKGICFIRTSRPENAIIYNNNEDFQVGQAKVVLKSKDDQVTVIGAGVTLHEALAAAELLKKEKINIRVLDPFTIKPLDRKLILDSARATKGRILTVEDHYYEGGIGEAVSSAVVGEPGITVTHLAVNRVPRSGKPAELLKMFGIDRDAIAQAVRGLITKA
notes: wild-type transketolase (TKT), human; in vector pSJ3; also called TKT homodimer; TKT-TKT; source: E. coli BL21 (DE3)pLysS, purified (nickel column)
B2: purified recombinant TKTL1 (natural protein, human, UniProt P51854 1-596, looked up)
chain: MADAEARAEFPEEARPDRGTLQVLQDMASRLRIHSIRATCSTSSGHPTSCSSSSEIMSVLFFYIMRYKQSDPENPDNDRFVLAKRLSFVDVATGWLGQGLGVACGMAYTGKYFDRASYRVFCLMSDGESSEGSVWEAMAFASYYSLDNLVAIFDVNRLGHSGALPAEHCINIYQRRCEAFGWNTYVVDGRDVEALCQVFWQASQVKHKPTAVVAKTFKGRGTPSIEDAESWHAKPMPRERADAIIKLIESQIQTSRNLDPQPPIEDSPEVNITDVRMTSPPDYRVGDKIATRKACGLALAKLGYANNRVVVLDGDTRYSTFSEIFNKEYPERFIECFMAEQNMVSVALGCASRGRTIAFASTFAAFLTRAFDHIRIGGLAESNINIIGSHCGVSVGDDGASQMALEDIAMFRTIPKCTIFYPTDAVSTEHAVALAANAKGMCFIRTTRPETMVIYTPQERFEIGQAKVLRHCVSDKVTVIGAGITVYEALAAADELSKQDIFIRVIDLFTIKPLDVATIVSSAKATEGRIITVEDHYPQGGIGEAVCAAVSMDPDIQVHSLAVSGVPQSGKSEELLDMYGISARHIIVAVKCMLLN
notes: wild-type transketolase-like protein 1 (TKTL1), human; in vector pSJ3; also called TKTL1 monomer; source: E. coli BL21 (DE3)pLysS, purified (nickel column)

Columns and labels:
[1] = target: the molecule itself; test: SPR; Biacore T200; TKT immobilised on a CM5 chip; constant of the TKT-TKT homodimer; the analyte series is not described
[2] = target: the molecule itself; test: SPR
[3] = target: the molecule itself; test: native gel or EMSA; native gel electrophoresis of TKT, TKTL1-TKT and TKTL1
[4] = target: T1, purified recombinant TKT; test: SPR
[5] = target: B1; test: SPR; Biacore T200; TKT amine-coupled to a CM5 chip in 10 mM sodium acetate pH 5.5; TKTL1 in a series of concentrations starting at 65.9 nM; PBS buffer; settings: both partners purified

Binder	Kd [1] [nM]	koff [2] [s⁻¹]	stoichiometry N [3]	koff [4] [s⁻¹]	Kd [5] [nM]
B1	118	0.00777	2		
B2				0.0044	146
